According to patent US20150098945A1 (Daiichi Sankyo, published 2015):

Legend:
[1] = target: T1, rat ROBO4 (pCI-raROBO4-transfected HEK293 cells) (rat, UniProt Q80W87 38-949 at identity 0.93)); assay: flow cytometry on transfected HEK293 cells
T1 chain: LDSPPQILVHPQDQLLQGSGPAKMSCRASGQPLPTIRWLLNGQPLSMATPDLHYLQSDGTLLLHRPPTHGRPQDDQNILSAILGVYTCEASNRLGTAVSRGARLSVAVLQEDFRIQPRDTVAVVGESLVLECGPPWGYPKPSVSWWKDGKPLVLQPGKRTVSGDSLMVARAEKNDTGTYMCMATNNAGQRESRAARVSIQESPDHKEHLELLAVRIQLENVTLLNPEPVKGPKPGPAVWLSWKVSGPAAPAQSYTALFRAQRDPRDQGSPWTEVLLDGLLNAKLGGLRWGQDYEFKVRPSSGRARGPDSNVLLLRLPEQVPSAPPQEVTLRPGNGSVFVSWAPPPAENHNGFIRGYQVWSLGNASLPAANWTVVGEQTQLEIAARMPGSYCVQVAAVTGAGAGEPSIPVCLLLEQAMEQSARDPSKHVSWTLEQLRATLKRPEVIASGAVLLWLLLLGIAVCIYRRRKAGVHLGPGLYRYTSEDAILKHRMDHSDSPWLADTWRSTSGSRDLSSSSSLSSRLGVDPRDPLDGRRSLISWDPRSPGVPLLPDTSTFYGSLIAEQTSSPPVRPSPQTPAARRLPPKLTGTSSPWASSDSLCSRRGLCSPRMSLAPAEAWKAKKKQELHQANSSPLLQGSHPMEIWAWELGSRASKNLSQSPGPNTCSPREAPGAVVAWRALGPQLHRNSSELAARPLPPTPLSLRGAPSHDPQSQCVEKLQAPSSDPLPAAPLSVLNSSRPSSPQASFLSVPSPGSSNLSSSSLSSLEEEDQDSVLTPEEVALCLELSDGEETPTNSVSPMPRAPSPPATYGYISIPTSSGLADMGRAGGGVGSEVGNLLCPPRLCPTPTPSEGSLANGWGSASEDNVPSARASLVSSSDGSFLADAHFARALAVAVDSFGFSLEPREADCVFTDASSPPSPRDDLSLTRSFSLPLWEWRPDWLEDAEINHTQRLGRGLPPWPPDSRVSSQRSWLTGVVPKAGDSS

[2] = target: T2, N-terminal FLAG-tagged cynomolgus monkey ROBO4, cynoROBO4-1 (pCI-FLAG-cynoROBO4-1) (cynomolgus monkey, UniProt Q8WZ75 28-1007 (human entry)); assay: flow cytometry on transfected HEK293 cells
T2 chain: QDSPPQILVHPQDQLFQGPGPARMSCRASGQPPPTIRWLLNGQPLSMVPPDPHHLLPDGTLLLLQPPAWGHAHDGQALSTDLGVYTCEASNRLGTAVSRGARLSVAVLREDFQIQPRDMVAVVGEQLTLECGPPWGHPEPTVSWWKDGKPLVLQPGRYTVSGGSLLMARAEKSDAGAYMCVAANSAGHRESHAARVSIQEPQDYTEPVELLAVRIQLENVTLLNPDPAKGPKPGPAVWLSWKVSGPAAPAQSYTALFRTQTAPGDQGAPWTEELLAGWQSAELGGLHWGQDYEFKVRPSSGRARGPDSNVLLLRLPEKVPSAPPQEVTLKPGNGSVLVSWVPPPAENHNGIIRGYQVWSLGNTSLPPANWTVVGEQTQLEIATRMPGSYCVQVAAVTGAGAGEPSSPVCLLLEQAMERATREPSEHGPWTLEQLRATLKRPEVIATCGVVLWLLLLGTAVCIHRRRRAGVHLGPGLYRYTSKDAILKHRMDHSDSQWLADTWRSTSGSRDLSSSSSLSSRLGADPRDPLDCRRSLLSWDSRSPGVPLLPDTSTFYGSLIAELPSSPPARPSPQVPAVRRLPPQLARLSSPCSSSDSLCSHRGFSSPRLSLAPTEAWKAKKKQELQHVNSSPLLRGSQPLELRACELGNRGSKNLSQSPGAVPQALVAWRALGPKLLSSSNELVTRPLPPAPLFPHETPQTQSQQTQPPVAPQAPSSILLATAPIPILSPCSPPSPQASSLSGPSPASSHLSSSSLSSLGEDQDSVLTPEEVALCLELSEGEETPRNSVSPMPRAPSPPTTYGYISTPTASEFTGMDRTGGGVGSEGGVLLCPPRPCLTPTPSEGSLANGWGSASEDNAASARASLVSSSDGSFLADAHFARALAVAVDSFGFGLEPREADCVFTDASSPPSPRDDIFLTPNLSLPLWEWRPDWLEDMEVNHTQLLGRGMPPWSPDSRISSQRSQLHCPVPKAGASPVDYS

binding result [2]: binds
B1: humanized MAb1 antibody H-1140 (antibody, human IgG2, kappa, V domains shown)
VH: EVQLVESGGGLVQPGGSLRLSCAASGFTFSTYAMSWVRQAPGKGLEWVATISQGGTYTYYPDSVKGRFTISRDNAKNTLYLQMNSLRAEDTAVYYCARLIYYDYLDYWGQGTLVTVSS
VL: DIVMTQSPLSLPVTLGEPASISCRSSQSLENSNGNTYLNWYLQKPGQSPQLLIYRVSNRFSGVPDRFSGSGSGTDFTLKISRVEAEDVGVYYCLQVTHVPWTFGPGTKVDIKR
notes: Human IgG2 / kappa constant regions; also called hMAb1-H2-type heavy chain + hMAb1-L1-type light chain
binding result [1]: no binding (tested: 10 µg/mL (method of 4)-3-2))
